Results reported in the FLAb antibody collection.

B1: unnamed (protein)
chain 1: EVQLVESGGGLVQPGGSLRLSCAASGYEFSRSWMNWVRQAPGKGLEWVGRIYPGDGDTNYSGKFKGRFTISADTSKNTAYLQMNSLRAEDTAVYYCARDGSSWDWYFDVWGQGTLVTVSS
chain 2: DIQMTQSPSSLSASVGDRVTITCRSSQSIVHSVGNTFLEWYQQKPGKAPKLLIYKVSNRFSGVPSRFSGSGSGTDFTLTISSLQPEDFATYYCFQGSQFPYTFGQGTKVEIK
B2: unnamed (protein)
chain 1: EVQLVESGGGLVQPGGSLRLSCAASGFTFSNYGMSWVRQAPGKGLEWVASISSGGGSTYYPDNVKGRFTISRDDAKNSLYLQMNSLRAEDTAVYYCARGGAGIDYWGQGTLVTVSS
chain 2: DIQMTQSPSSLSASVGDRVTITCKSIQTLLYSSNQKNYLAWFQQKPGKAPKLLIYWASIRKSGVPSRFSGSGSGTDFTLTISSLQPEDLATYYCQQYYSYPLTFGGGTKLEIK
B3: unnamed (protein)
chain 1: EVQLVESGGGLVQPGGSLRLSCAASGFTFTDYTMDWVRQAPGKGLEWVADVNPNSGGSIYNQRFKGRFTLSVDRSKNTLYLQMNSLRAEDTAVYYCARNLGPSFYFDYWGQGTLVTVSS
chain 2: DIQMTQSPSSLSASVGDRVTITCKASQDVSIGVAWYQQKPGKAPKLLIYSASYRYTGVPSRFSGSGSGTDFTLTISSLQPEDFATYYCQQYYIYPYTFGQGTKVEIK
B4: unnamed (protein)
chain 1: QVQLVQSGAEVKKPGASVKVSCKASGYYTEAYYIHWVRQAPGQGLEWMGRIDPATGNTKYAPRLQDRVTMTRDTSTSTVYMELSSLRSEDTAVYYCASLYSLPVYWGQGTTVTVSS
chain 2: DVVMTQSPLSLPVTLGQPASISCKSSQSLLYSDAKTYLNWFQQRPGQSPRRLIYQISRLDPGVPDRFSGSGSGTDFTLKISRVEAEDVGVYYCLQGTHYPVLFGQGTRLEIK
B5: unnamed (protein)
chain 1: EVQLLESGGGLVQPGGSLRLSCAASGFTFSSYIMMWVRQAPGKGLEWVSSIYPSGGITFYADTVKGRFTISRDNSKNTLYLQMNSLRAEDTAVYYCARIKLGTVTTVDYWGQGTLVTVSS
chain 2: QSALTQPASVSGSPGQSITISCTGTSSDVGGYNYVSWYQQHPGKAPKLMIYDVSNRPSGVSNRFSGSKSGNTASLTISGLQAEDEADYYCSSYTSSSTRVFGTGTKVTVL
B6: unnamed (protein)
chain 1: EVQLVESGGGLVQPGGSLRLSCAASGYTFSSYWIEWVRQAPGKGLEWIGEILPGGGDTNYNEIFKGRATFSADTSKNTAYLQMNSLRAEDTAVYYCTRRVPIRLDYWGQGTLVTVSS
chain 2: DIQLTQSPSSLSASVGDRVTITCKASQSVDYEGDSFLNWYQQKPGKAPKLLIYAASNLESGVPSRFSGSGSGTDFTLTISSLQPEDFATYYCQQSNEDPLTFGQGTKVEIK
B7: unnamed (protein)
chain 1: EVQLVESGGGLVQPGGSLRLSCAASGFTFSSYWMSWVRQAPGKGLEWVAYIKQDGNEKYYVDSVKGRFTISRDNAKNSLYLQMNSLRAEDTAVYYCAREGILWFGDLPTFWGQGTLVTVSS
chain 2: DIQMTQSPSSLSASVGDRVTITCRASQGISNWLAWYQQKPEKAPKSLIYAASSLQSGVPSRFSGSGSGTDFTLTISSLQPEDFATYYCQQYDSYPRTFGQGTKVEIK
B8: unnamed (protein)
chain 1: QVQLVQSGAEVKKPGASVKVSCKASGYIFSNYWIQWVRQAPGQGLEWMGEILPGSGSTEYAQKFQGRVTMTADTSTSTAYMELSSLRSEDTAVYYCARYFFGSSPNWYFVWGQGT
chain 2: DIQMTQSPSLSASVGDRVTITCGASENIYGALNWYQRKPGKAPKLLIYGATNLADGVPSRFSGSGSGTDYTLTISSLQPEDFATYYCQNVLNTPLTFGQGTKVEIK
B9: unnamed (protein)
chain 1: QVQLQQSGAELVKPGASVKLSCKASGYTFTSYDINWVRQRPEQGLEWIGWIFPGDGSTKYNEKFKGKATLTTDKSSSTAYMQLSRLTSEDSAVYFCAREDYYDNSYYFDYWGQGTTLTVSS
chain 2: DIQMTQTTSSLSASLGDRVTISCRASQDISNYLNWYQQKPDGTVKLLIYYTSRLHSGVPSRFSGSGSGTDYSLTISNLEQEDIATYFCQQGNTLPWTFGGGTKLEIK
B10: unnamed (protein)
chain 1: EVQLVQSGGGLVKPGGSLRLSCAASGFTFSSYSMNWVRQAPGKGLEWVSSISSSSSYIYYADSVKGRFTISRDNAKNSLYLQMNSLRAEDTAVYYCARVTDAFDIWGQGTMVTVSS
chain 2: DIQMTQSPSSVSASIGDRVTITCRASQGIDNWLGWYQQKPGKAPKLLIYDASNLDTGVPSRFSGSGSGTYFTLTISSLQAEDFAVYFCQQAKAFPPTFGGGTKVDIK

Assay: patients with anti-drug antibodies; higher = more immunogenic

Protein | patients with anti-drug antibodies [%]
B1 | 1.4
B2 | 0
B3 | 2.8
B4 | 0
B5 | 5
B6 | 2.6
B7 | 0
B8 | 0
B9 | 85
B10 | 4.1
